Measured values: PMC10276142, “Protocol to measure protein-RNA binding using double filter-binding assays followed by phosphorimaging or high-throughput sequencing”

Target: AGO2 (miR-449a RISC) (mouse, UniProt Q8CJG0 1-860)
Assay: filter binding; titration regime, 0.5 nM target RNA (2.5 nM stock, 1 in 5), 37 C 1 h; stoichiometric point [RISC]/[target] 1.3 (77% active); no KD reported; Double filter binding (nitrocellulose/nylon), 5 uL reactions, 37 C for 1 h; compositions of Storage, Dilution and Reaction Mix buffers not given in material
Conditions: protein: recombinant; tags: FLAG; label: 5' 32P on target; guide:target seed pairing, guide nt 2-8 plus A opposite nt 1; rest of target single-stranded

AGO2 (miR-449a RISC), sequence (Q8CJG0 whole entry): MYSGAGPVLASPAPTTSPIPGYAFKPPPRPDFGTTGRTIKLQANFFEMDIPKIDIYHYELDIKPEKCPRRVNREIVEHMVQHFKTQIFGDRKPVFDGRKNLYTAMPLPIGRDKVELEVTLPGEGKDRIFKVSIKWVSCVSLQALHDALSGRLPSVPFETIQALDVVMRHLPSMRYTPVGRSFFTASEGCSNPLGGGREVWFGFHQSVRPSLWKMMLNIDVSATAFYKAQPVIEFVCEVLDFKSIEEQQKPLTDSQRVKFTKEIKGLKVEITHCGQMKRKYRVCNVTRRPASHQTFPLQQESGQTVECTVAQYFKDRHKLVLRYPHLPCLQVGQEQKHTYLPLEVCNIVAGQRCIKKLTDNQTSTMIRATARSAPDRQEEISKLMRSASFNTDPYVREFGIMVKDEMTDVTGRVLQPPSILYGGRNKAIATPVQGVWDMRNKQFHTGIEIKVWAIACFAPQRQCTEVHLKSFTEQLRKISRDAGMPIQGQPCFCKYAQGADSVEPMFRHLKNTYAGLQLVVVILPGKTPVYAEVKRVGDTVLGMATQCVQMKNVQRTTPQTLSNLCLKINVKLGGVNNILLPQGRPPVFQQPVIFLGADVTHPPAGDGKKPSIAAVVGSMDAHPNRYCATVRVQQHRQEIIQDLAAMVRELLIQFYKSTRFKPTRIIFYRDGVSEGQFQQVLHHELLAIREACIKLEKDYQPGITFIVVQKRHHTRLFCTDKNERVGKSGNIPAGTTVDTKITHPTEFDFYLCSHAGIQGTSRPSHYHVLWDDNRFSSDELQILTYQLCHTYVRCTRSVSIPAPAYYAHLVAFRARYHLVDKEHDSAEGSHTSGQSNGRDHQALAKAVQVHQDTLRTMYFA

B1: miR-449a guide / 8mer-site target RNA (mixed)
RNA 1: UGGCAGUGUAUUGUUAGCUGGU
RNA 2: AUGAAAUCGAUAUCUAUCACUGCCAACU
modifications: guide 5'-phosphate; target 5' 32P-phosphate
B1: binds.
